Patent EP4659811A1 (Université de Strasbourg, dated 2025)

B1: antibody C9P1 (antibody, V domains shown)
VH: EVQLLESGGGLVQPGGSLRLSCVTSGFTFSSYSMTWVRQAPGKGLEWVSYISSSSRTISYADSVQGRFTISRDNAKNVLYLQMNSLRAEDTAVYYCARQAVAHFDYWGQGTLVTVSS
VL: EIVLTQSPGTLSLSPGERATLSCRASQRVSSNYLAWYQQKPGQAPRLLIYGASSRATGIPDRFSGSGSGTDFTLTISRLEPEDFAVYYCQQYGTSPRSFGQGTKVEIK
B2: antibody E2P6 (antibody, V domains shown)
VH: EVQLVESGGGLIQPGGSLRLSCAASGFTVSTNCMSWVRQAPGTGLEWVSVIYSGGTTYYADSVKGRFTISRDNSRNTLYLQMNGLRAEDTAVYYCARSVDTYDIYALDVWGQGTTVTVSS
VL: DIQMTQSPSTLSASVGDRVTITCRASQSISRWLAWYQQKPGKAPKLLIYKASGLHSGAPSRFSGSGSGTEFTLTISGLQPDDFATYFCQQYNSYPWTFGQGTKVEIK
B3: antibody B2P8 (antibody, V domains shown)
VH: QVQLQESGPGLVKPSETLSLTCTVSGGSIRNSYWSWIRQPPGKGLEWIGYIYYTGTTNSNPSLKSRVTISVHMSQNQISLKLNSVTPADTAVYYCAQGGGSGDLHYWGQGTLVTVSS
VL: EIVLTQSPDTLSLSPGARATLSCRASQSVRSNYLAWYQQKPGQAPRLLIYGASSRATAIPDRFSGSGSGTDFTLTITRLEPEDFAVYYCHQYASSPRTFGQGTKVEIK
B4: antibody B8P7 (antibody, V domains shown)
VH: QVQLQESGPGLVRPSETLSLTCTVSGGSISPYYWNWIRQPPGKGLEWIGYIYYSGNTKYNPSLKSRVTISVDTSKNQFSLKLSSVSAADTAVYYCARDSCSGTCYLGDNWFDPWGQGTLVTVSS
VL: QSVLTQPPSVSGAPGQRVTISCTGSSSNIGANNDVHWYQHLPGTAPKLLIYGNNHRPSGVPDRFSGSKSGTSASLAITGLQAEDEADYYCQSYDSSLSTSKVFGGGTKLTVL
B5: antibody C4P6 (antibody, V domains shown)
VH: QVQLQESGPGLVRPSETLSLTCTVSGGSISPYYWNWIRQPPGKGLEWIGYIYYSGNTKYNPSLKSRVTISVDTSKNQFSLKLSSVSAADTAVYYCARDSCSGTCYLGGNWFDPWGQGTLVTVSS
VL: QSVLTQPPSVSGAPGQRVTISCTGSSSNIGANNDVHWYQHLPGTAPKLLIYGNNHRPSGVPDRFSGSKSGTSASLAITGLQAEDEADYYCQSYDSSLSTSKVFGGGTKLTVL
B6: antibody G6P7 (antibody, V domains shown)
VH: QVQLQESGPGLVRPSETLSLTCTVSGGSISPYYWNWIRQPPGKGLEWIGYIYYSGNTKYNPSLKSRVTISVDTSKNQFSLKLSSVSAADTAVYYCARDSCSGTCYLGDNWFDPWGQGTLVTVSS
VL: QSVLTQPPPVSGAPGQRVTISCTGSSSNIGANNDVHWYQHLPGTAPKLLIYGNNHRPSGVPDRFSGSKSGTSASLAITGLQAEDEADYYCQSYDSSLSTSKVFGGGTKLTVL
B7: antibody G7P7 (antibody, V domains shown)
VH: QVQLQESGPGLVRPSQTLSLTCTVSGGSMTSGSYYWSWIRQPAEKGLEWIGRIYTSGRTDYNPSLKSRVAMSIDTSKNQFSLRLTSVTAADTAVYYCARWGDSSAYYYVGDPWGRGTPVTVSS
VL: DIQMTQSPSSLSASIGDRVTITCRASQNINTYLYWYQQKPGKAPQLLIYAASNLQTGAPSRFSGSGSGTDFTLTISSLQPADFATYYCQQSFSLPHTFGQGTKLEIK
B8: antibody C6P7 (antibody, V domains shown)
VH: QVQLQESGPGLVRPSQTLSLTCTVSGGSMTSGSYYWSWIRQPAEKGLEWIGRIYTSGRTDYNPSLKSRVAMSIDTSKNQFSLRLTSVTAADTAVYYCARWGDSSAYYYVGDPWGRGTPVTVSS
VL: DIQMTQSPSSLSASIGDRVTITCRASQNINTYLYWYQQKPGKAPQLLIYAASNLQTGAPSRFSGSGSGTDFTLTISSLQPADFATYYCQQSFSLPHTFGQGTKVEIK
B9: antibody G8P6 (antibody, V domains shown)
VH: QVQLQESGPGLVRPSQTLSLTCTVSGGSMTSGSYYWSWIRQPAEKGLEWIGRIYTSGRTDYNPSLKSRVAMSIDTSKNQFSLRLTSVTAADTAVYYCARWGDSSAYYYVGDPWGRGTTVTVSS
VL: DIQMTQSPSSLSASIGDRVTITCRASQNINTYLYWYQQKPGKAPQLLIYAASNLQTGAPSRFSGSGSGTDFTLTISSLQPADFATYYCQQSFSLPHTFGQGTKLEIK
B10: antibody F3P6 (antibody, V domains shown)
VH: QVQLVQSGAEVKKPGASVKVSCKASGYTFTTHIIHWVRQAPGQRLEWMGWINAGNGNTHYSEKFQGRVTLTRDTSASTAYMELSSLRSEDTAIYYCAREDQWLGRSPLEYWGQGTLVTVSS
VL: EIVLTQSPGTLSLSPGERATLSCRASQSVSSSYLAWYQHKPGQAPRLLIYGASSRATGIPDRFSGSGSGTDFTLTISRLEPEDFAVYYCQQYGNSYPWTFGQGTKVEIK
B11: antibody G5P6 (antibody, V domains shown)
VH: QVQLVQSGAEVKKPGASVKVSCKASGYTFTTHIIHWVRQAPGQRLEWMGWINAGNGNTKYSEKFQGRVTLTRDTSASTAYMELSSLRSEDTAIYYCAREDQWLGRSPLEYWGQGTLVTVSS
VL: EIVLTQSPGTLSLSPGERATLSCRASQSVSSSYLAWYQHKPGQAPRLLIYGASSRATGIPDRFSGSGSGTDFTLTVSRLEPEDFAVYYCQQYGNSYPWTFGQGTKVEIK
B12: antibody B7P6 (antibody, V domains shown)
VH: EVQLVQSGAELKKPGESLKISCKGSGFTFTNYWIAWVRQMPGKGLEWMGIIYPDDSDARYSPSFEGQVTISVDKSISTAYLQWSSLKASDTAIYYCARGGFCSGSVCYNPAWFDLWGQGTLVTVSS
VL: DIQMTQSPSSLSASVGDRVTITCRASQTINTYLNWYLQKPGKAPKLLISDASSLETGVPSRFSGSGSGTDFTLTISSLQPDDFATYYCQQSYSTPLTFGGGTKVEIK
B13: antibody E6P5 (antibody, V domains shown)
VH: EVQLVESGGGLVQPGRSLRLSCSASGFTFDDHAMHWVRQAPGKGLEWVAGINWNSASIVYADSVKGRFTISRDNVKNSLYLQMNSLRADDTALYYCAKDFGLWFGESRGIDAWGRGTTVTVSS
VL: DIVMTQSPLSLPVTPGEPASISCRPSQSLLHSNGYNYLNWYLQKPGRSPQLLIYLGSNRASGVPDRFSGSGSGTDFTLKISRVEAEDVGIYYCMQALQTPITFGQGTRLEIK
B14: antibody F4P5 (antibody, V domains shown)
VH: EVQLVESGGGVVQPGRSLRLSCAASGFTFSNFGMHWVRQPPGKGLEWVAVISYDGSDKFYADSVKGRFTISRDNFKNTLYVQMNSLRAEDTAVYYCAKDRVRTKYYYDHSGPFDYWGRGTLVTVSS
VL: SYELTQPPSVSVAPGQTARIACGGNNIGSKSVHWYQQRPGQAPVLVVYDDDDRPSGIPERFSGSNSGNTATLTISRVEAGDEADYFCQVWMTNSDRPVFGGGTKLTVL
B15: antibody B10P1 (antibody, V domains shown)
VH: EVQLSESGGGLVQPGGSLRLSCAASGFTFSSYAMSWVRQAPGKGLEWVSSLTGSGGSTYYRDSVKGRFTIFRDNSKKTLYMQMNSLRAEDTAVYYCAKEGAYSYDFWYFDLWGRGTLVTVSS
VL: EIVLTQSPGTLSLSPGERATLSCRASQTVSGNYLAWYQQKPGQSPSLLIYGASSRATGIPDRFTGSGSGTDFTLTISRLEPADFAVYYCQQYGRPLTFGGGTKVDIK
B16: antibody G9P2 (antibody, V domains shown)
VH: EVQLLESGGGLVQPGGSLRLSCAASGFTFSSYAMSWVRQAPGKGLEWVSSLTGSGGSTYYRDSVKGRFTIFRDNSKKTLYMQMNSLRAEDTAVYYCAKEGAYSYDFWYFDLWGRGTLVTVSS
VL: EIVLTQSPGTLSLSPGERATLSCRASQTVSGNYLAWYQQKPGQSPSLLTYGASSRATGIPDRFTGSGSGTDFTLTISRLEPADFAVYYCQQYGRPLTFGGGTKVEIK

Assays:
[1] = target: T1, VP1 pentamer of BKV genotype IV (recombinant) (BK virus genotype IV, UniProt P14996 30-300); assay: ELISA, coated VP1 pentamer
T1 construct: also called GIV; VP1 BKV subtype IV; not shown: N-terminal His-tag of pESPRIT002; C-terminal biotin acceptor peptide (BAP) of pESPRIT002

[2] = target: T2, VP1 pentamer of BKV genotype II (recombinant) (BK virus genotype II, UniProt P14996 30-300); assay: ELISA, coated VP1 pentamer
T2 construct: also called GII; VP1 geno II pentamer; not shown: N-terminal His-tag of pESPRIT002; C-terminal biotin acceptor peptide (BAP) of pESPRIT002

[3] = target: VP1 capsid protein on BKV pseudovirions of genotype II (GBR-12; AB263920) (BK virus genotype II (GBR-12)); assay: cell-based or functional assay
[4] = target: VP1 capsid protein on BKV pseudovirions of genotype IVc2 (A-66H; AB369093) (BK virus genotype IVc2 (A-66H)); assay: cell-based or functional assay
[5] = target: VP1 capsid protein on BKV pseudovirions of genotype Ia (BK-D; JF894228) (BK virus genotype Ia (BK-D)); assay: cell-based or functional assay

Row | Binder | binding result [1] | binding result [2] | Neutralization PSV IC50 [3] [µg/mL] | Neutralization PSV IC50 [4] [µg/mL] | Neutralization PSV IC50 [5] [µg/mL] | EC50 [1] [µg/mL] | EC50 [2] [µg/mL]
1 | B1 | no binding (tested: starting at 50 µg/mL) | no binding (tested: starting at 50 µg/mL) | > 50 | > 50 | > 50 |  | 
2 | B2 |  |  | > 50 | > 50 | > 50 | 0.6 | 0.14
3 | B3 |  |  | > 50 | > 50 | > 50 | 12 | 5
4 | B4 |  |  | 0.0004 | 0.164 | 0.0019 | 3 | 0.04
5 | B5 |  |  | 0.103 | 0.726 | 0.32 | 2.25 | 2.5
6 | B6 |  |  | 0.0041 | 0.883 | 0.0038 | 2.5 | 0.2
7 | B7 |  |  | 0.0007 | 0.0036 | 12.5 | 0.04 | 0.06
8 | B8 |  |  | 0.0002 | 0.0053 | 0.104 | 0.08 | 0.55
9 | B9 |  |  | 0.0058 | 0.0582 | 6.44 | 0.06 | 0.08
10 | B10 |  |  | 0.0062 | 0.262 | 0.363 | 1.25 | 0.15
11 | B11 |  |  | 0.0082 | 0.0889 | 0.299 | 0.7 | 0.28
12 | B12 |  |  | 0.0044 | 0.121 | 0.0479 | 0.1 | 0.04
13 | B13 |  |  | 0.232 | 1.19 | 0.0008 | 3 | 0.6
14 | B14 |  |  | 0.471 | 15.9 | 0.0008 | 12 | 10
15 | B15 |  |  | 0.107 | > 50 | 1.27 | 15 | 2.8
16 | B16 |  |  | 0.0336 | > 50 | 0.683 | 10 | 1.5
